Data set [1] concerns the target T1, Acceptor substrate 6 (SEQ ID NO: 9).
T1 chain: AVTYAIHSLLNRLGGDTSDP

The target of data set [2] is T2, Acceptor substrate 2 (SEQ ID NO: 5).
T2 chain: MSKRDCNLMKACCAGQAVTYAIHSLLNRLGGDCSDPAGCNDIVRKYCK

Data set [3] has as its target T3, Acceptor substrate 1 (SEQ ID NO: 4).
T3 chain: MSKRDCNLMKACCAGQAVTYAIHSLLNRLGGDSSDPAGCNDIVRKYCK

B1: C-terminal 6X-His tagged recombinant nucleotide dependent glycosyltransferase protein (GT-CTH) (protein)
chain: MGYSENFIANDWFNVEVFNKNKYTLTNQENKDVTELWLQILKGLKFPNELKETVSYSKNLKELSLKTHAEVSVCIIAKNEQDSIRKCINSIYEFSDEIIFIDTGSIDSTKKIVKEIASEKVKIFDYTWQDDFSDARNYSIQKASKEWILIIDADEYVSSDELIKLRLLIDMLDRFKFKDSLRVSCAIYQLDNVITHGQSRLFRNNNKIKYYGLIHEELRNNKGLDPIFNVESEITFFHDGYKEILRKEKCERNIRLLAKMLEKEPDNVRWAYLYCRDSFSINSNIDFEKILLPFLIKNMDESISCENILLTNYTHLILFLITKKYIIDGKSSLASKCIEVLEKMLPNSSDVTFYKFLNKQHSLYEQQFEFLKEVIQFRKNNEYDQYSQIGCNLLHYDLLISGLLFDVKSYDYSYQYFLKLDLANYFSELEIPDEYKMLINKYRENESLEHHHHHH
As to B1, in data set [1], the “in vitro glycosylation of the acceptor peptide, MALDI-TOF” value is “observed (M+H)^+ of di-glycosylated product as 2424.65 Da (Expected (M+H)^+ 2424.07 Da) and observed (M+H)^+ of mono-glycosylated product as 2262.57 Da”. The results for the “in vitro glycosylation of the acceptor peptide, LC-ESI-Q/TOF” value in data set [2] and in data set [3] were “observed monoisotopic mass of di-glycosylated product as 5515.53 Da (Expected monoisotopic mass 5515.41 Da)” and “observed average mass of di-glycosylated product as 5503.47 Da (Expected average mass 5503.00 Da)”, respectively.

The record behind these values is patent US20210071221.
